T1: Skn7 DBD (Coprinopsis cinerea, UniProt A8PG35 214-443)
T1 sequence: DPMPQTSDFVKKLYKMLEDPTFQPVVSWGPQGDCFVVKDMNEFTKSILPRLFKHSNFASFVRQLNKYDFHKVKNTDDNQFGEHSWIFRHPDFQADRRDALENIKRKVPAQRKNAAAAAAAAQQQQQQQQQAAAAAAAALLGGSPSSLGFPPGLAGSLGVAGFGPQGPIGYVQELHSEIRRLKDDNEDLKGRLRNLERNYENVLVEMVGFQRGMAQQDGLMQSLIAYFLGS

T2: truncated bHLH1 (Coprinopsis cinerea, UniProt A8P5K0 311-490)
T2 sequence: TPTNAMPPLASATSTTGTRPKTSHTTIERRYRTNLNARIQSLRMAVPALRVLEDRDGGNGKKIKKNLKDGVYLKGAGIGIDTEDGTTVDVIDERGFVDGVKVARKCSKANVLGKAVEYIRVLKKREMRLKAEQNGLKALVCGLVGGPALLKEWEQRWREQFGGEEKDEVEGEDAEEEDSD

B1: lcc9 promoter probe (dsDNA)
DNA 1: CATTCTGTCTAGAAT
DNA 2: ATTCTAGACAGAATG
B2: gst promoter probe (dsDNA)
DNA 1: GATGTGTCGACGTCTGA
DNA 2: TCAGACGTCGACACATC
B3: easA promoter probe (dsDNA)
DNA 1: TGGTGGACAAGTTTCCGT
DNA 2: ACGGAAACTTGTCCACCA
B4: lcc9 promoter probe for bHLH1 (dsDNA)
DNA 1: ATTCATTCTGTCTAGAATGGG
DNA 2: CCCATTCTAGACAGAATGAAT
B5: sod2 promoter probe (dsDNA)
DNA 1: AGAAGGATCTAGAGACTCGG
DNA 2: CCGAGTCTCTAGATCCTTCT
B6: nrps promoter probe (dsDNA)
DNA 1: TAACCATGTCCAACTCTAAT
DNA 2: ATTAGAGTTGGACATGGTTA

Key:
Skn7 DBD = biological target: T1, Skn7 DBD; test: EMSA; poly d(I-C); 25 mM HEPES, 4 mM DTT, 100 mM KCl, 2 mM MgCl2, 10% glycerol, 0.01 mg/mL BSA, pH 7.3; 200 ng probe, 200 ng poly d(I-C), 20 µL; temperature not stated; settings: protein: recombinant; tags: His-SUMO, removed with Ulp1; label: 5'-6-carboxyfluorescein
truncated bHLH1 = biological target: T2, truncated bHLH1; test: EMSA; 25 mM HEPES, 4 mM DTT, 100 mM KCl, 2 mM MgCl2, 10% glycerol, 0.01 mg/mL BSA, pH 7.3; 200 ng probe, 200 ng poly d(I-C), 20 µL; temperature not stated; settings: protein: recombinant; tags: His; chain copies: 2

Row | Binder | binding result (Skn7 DBD) | binding result (truncated bHLH1)
1 | B1 | binds | 
2 | B2 | binds | 
3 | B3 | binds | 
4 | B4 |  | binds
5 | B5 | binds | 
6 | B6 | binds | 

Reference: publication PMC12403569, “The regulatory network of Coprinopsis cinerea transcription factor Skn7 collaborates with bHLH1 during fungal-fungal interactions”
